The record followed here is patent US20260258127A1 (YING MAI DE MEDICAL TECHNOLOGY GUANGDONG, published 2026).

B1: anti-CD3 antibody mutant VH-Y61C (antibody, V domains shown)
VH: EVQLVESGGGLVQPGGSLRLSCAASGFTFSTYAMNWVRQAPGKGLEWVGRIRSKYNNYATCYADSVKDRFTISRDDSKNSLYLQMNSLKTEDTAVYYCARHGNFGNSYVSWFAYWGQGTLVTVSS
VL: QTVVTQEPSLTVSPGGTVTLTCRSSTGAVTTSNYANWVQQKPGQAPRGLIGGTNKRAPGVPARFSGSLLGDKAALTLLGAQPEDEAEYFCALWYSNLWVFGGGTKLTVL
notes: Cys point mutant of the humanized anti-CD3 antibody; also called VH-61
B2: anti-CD3 antibody mutant VH-F104C (antibody, V domains shown)
VH: B1 VH with C61Y, F104C
VL: B1 VL
notes: Cys point mutant of the humanized anti-CD3 antibody; also called VH-104
B3: anti-CD3 antibody mutant VH-S53C (antibody, V domains shown)
VH: B1 VH with S53C, C61Y
VL: B1 VL
notes: Cys point mutant of the humanized anti-CD3 antibody; also called VH-53
B4: anti-CD3 antibody mutant VL-W93C (antibody, V domains shown)
VH: B1 VH with C61Y
VL: B1 VL with W93C
notes: Cys point mutant of the humanized anti-CD3 antibody; also called VL-93
B5: anti-CD3 antibody mutant VH-D68C (antibody, V domains shown)
VH: B1 VH with C61Y, D68C
VL: B1 VL
notes: Cys point mutant of the humanized anti-CD3 antibody; also called VH-68
B6: anti-CD3 antibody mutant VL-K55C (antibody, V domains shown)
VH: B1 VH with C61Y
VL: B1 VL with K55C
notes: Cys point mutant of the humanized anti-CD3 antibody; also called VL-55
B7: anti-CD3 antibody mutant VL-R56C (antibody, V domains shown)
VH: B1 VH with C61Y
VL: B1 VL with R56C
notes: Cys point mutant of the humanized anti-CD3 antibody; also called VL-56
B8: anti-CD3 antibody mutant VH-W111C (antibody, V domains shown)
VH: B1 VH with C61Y, W111C
VL: B1 VL
notes: Cys point mutant of the humanized anti-CD3 antibody; also called VH-111
B9: anti-CD3 antibody mutant VH-M34C (antibody, V domains shown)
VH: B1 VH with M34C, C61Y
VL: B1 VL
notes: Cys point mutant of the humanized anti-CD3 antibody; also called VH-34
B10: anti-CD3 antibody mutant VL-N96C (antibody, V domains shown)
VH: B1 VH with C61Y
VL: B1 VL with N96C
notes: Cys point mutant of the humanized anti-CD3 antibody; also called VL-96
B11: anti-CD3 antibody mutant VL-N54C (antibody, V domains shown)
VH: B1 VH with C61Y
VL: B1 VL with N54C
notes: Cys point mutant of the humanized anti-CD3 antibody; also called VL-54
B12: anti-CD3 antibody mutant VL-Y94C (antibody, V domains shown)
VH: B1 VH with C61Y
VL: B1 VL with Y94C
notes: Cys point mutant of the humanized anti-CD3 antibody; also called VL-94
B13: anti-CD3 antibody mutant VH-F112C (antibody, V domains shown)
VH: B1 VH with C61Y, F112C
VL: B1 VL
notes: Cys point mutant of the humanized anti-CD3 antibody; also called VH-112
B14: anti-CD3 antibody mutant VL-Y34C (antibody, V domains shown)
VH: B1 VH with C61Y
VL: B1 VL with Y34C
notes: Cys point mutant of the humanized anti-CD3 antibody; also called VL-34
B15: CD3 antibody VH-Y61C PEG20K conjugate after activation (Table 3) (antibody, V domains shown)
VH: B1 VH
VL: B1 VL
modifications: Cys 61: PEG20K blocker released by activation (cleavage of the linker peptide); what remains on Cys 61 is not stated
B16: CD3 antibody VH-Y61C PEG10K conjugate after activation (Table 3) (antibody, V domains shown)
VH: B1 VH
VL: B1 VL
modifications: Cys 61: PEG10K blocker released by activation (cleavage of the linker peptide); what remains on Cys 61 is not stated
B17: CD3 antibody VH-Y61C PEG5K conjugate after activation (Table 3) (antibody, V domains shown)
VH: B1 VH
VL: B1 VL
modifications: Cys 61: PEG5K blocker released by activation (cleavage of the linker peptide); what remains on Cys 61 is not stated
B18: CD3 antibody VH-Y61C PEG40K conjugate after activation (Table 3) (antibody, V domains shown)
VH: B1 VH
VL: B1 VL
modifications: Cys 61: PEG40K blocker released by activation (cleavage of the linker peptide); what remains on Cys 61 is not stated
B19: CD3 antibody VH-Y61C conjugated through the cleavable linker peptide with R1 = PEG20K (Table 3) (antibody, V domains shown)
VH: B1 VH
VL: B1 VL
modifications: Cys 61 conjugated with cleavable linker peptide P carrying blocker PEG20K
notes: may be the same molecule as m19 (same value 400) or as CD3-Her2+20k; also called VH-61 Y61C PEG20K
B20: CD3 antibody VH-Y61C conjugated through the cleavable linker peptide with R1 = PEG5K (Table 3) (antibody, V domains shown)
VH: B1 VH
VL: B1 VL
modifications: Cys 61 conjugated with cleavable linker peptide P carrying blocker PEG5K
notes: also called VH-61 Y61C PEG5K
B21: CD3 antibody VH-Y61C conjugated through the cleavable linker peptide with R1 = PEG10K (Table 3) (antibody, V domains shown)
VH: B1 VH
VL: B1 VL
modifications: Cys 61 conjugated with cleavable linker peptide P carrying blocker PEG10K
notes: also called VH-61 Y61C PEG10K
B22: CD3 antibody VH-Y61C conjugated through the cleavable linker peptide with R1 = PEG40K (Table 3) (antibody, V domains shown)
VH: B1 VH
VL: B1 VL
modifications: Cys 61 conjugated with cleavable linker peptide P carrying blocker PEG40K
notes: also called VH-61 Y61C PEG40K
B23: anti-CD3 antibody mutant VH-Y61C conjugated with Molecule I (+20K) (antibody, V domains shown)
VH: B1 VH
VL: B1 VL
modifications: Cys 61 conjugated with Molecule I (+20K)
notes: also called VH-61 Y61 (+20K)
B24: anti-CD3 antibody mutant VL-Y94C conjugated with Molecule I (+20K) (antibody, V domains shown)
VH: B1 VH with C61Y
VL: B1 VL with Y94C
modifications: Cys 94 conjugated with Molecule I (+20K)
notes: also called VL-94 Y94 (+20K)
B25: anti-CD3 antibody mutant VH-F112C conjugated with Molecule I (+20K) (antibody, V domains shown)
VH: B1 VH with C61Y, F112C
VL: B1 VL
modifications: Cys 112 conjugated with Molecule I (+20K)
notes: also called VH-112 F112 (+20K)
B26: anti-CD3 antibody mutant VL-Y34C conjugated with Molecule I (+20K) (antibody, V domains shown)
VH: B1 VH with C61Y
VL: B1 VL with Y34C
modifications: Cys 34 conjugated with Molecule I (+20K)
notes: also called VL-34 Y34 (+20K)
B27: anti-CD3 antibody mutant VH-S53C conjugated with Molecule I (+20K) (antibody, V domains shown)
VH: B1 VH with S53C, C61Y
VL: B1 VL
modifications: Cys 53 conjugated with Molecule I (+20K)
notes: also called VH-53 S53 (+20K)
B28: anti-CD3 antibody mutant VH-D68C conjugated with Molecule I (+20K) (antibody, V domains shown)
VH: B1 VH with C61Y, D68C
VL: B1 VL
modifications: Cys 68 conjugated with Molecule I (+20K)
notes: also called VH-68 D68 (+20K)
B29: anti-CD3 antibody mutant VL-N96C conjugated with Molecule I (+20K) (antibody, V domains shown)
VH: B1 VH with C61Y
VL: B1 VL with N96C
modifications: Cys 96 conjugated with Molecule I (+20K)
notes: also called VL-96 N96 (+20K)
B30: anti-CD3 antibody mutant VL-N54C conjugated with Molecule I (+20K) (antibody, V domains shown)
VH: B1 VH with C61Y
VL: B1 VL with N54C
modifications: Cys 54 conjugated with Molecule I (+20K)
notes: also called VL-54 N54 (+20K)
B31: anti-CD3 antibody mutant VL-W93C conjugated with Molecule I (+20K) (antibody, V domains shown)
VH: B1 VH with C61Y
VL: B1 VL with W93C
modifications: Cys 93 conjugated with Molecule I (+20K)
notes: also called VL-93 W93 (+20K)
B32: anti-CD3 antibody mutant VH-F104C conjugated with Molecule I (+20K) (antibody, V domains shown)
VH: B1 VH with C61Y, F104C
VL: B1 VL
modifications: Cys 104 conjugated with Molecule I (+20K)
notes: also called VH-104 F104 (+20K)
B33: anti-CD3 antibody mutant VL-R56C conjugated with Molecule I (+20K) (antibody, V domains shown)
VH: B1 VH with C61Y
VL: B1 VL with R56C
modifications: Cys 56 conjugated with Molecule I (+20K)
notes: also called VL-56 R56 (+20K)
B34: anti-CD3 antibody mutant VH-M34C conjugated with Molecule I (+20K) (antibody, V domains shown)
VH: B1 VH with M34C, C61Y
VL: B1 VL
modifications: Cys 34 conjugated with Molecule I (+20K)
notes: also called VH-34 M34 (+20K)
B35: anti-CD3 antibody mutant VH-W111C conjugated with Molecule I (+20K) (antibody, V domains shown)
VH: B1 VH with C61Y, W111C
VL: B1 VL
modifications: Cys 111 conjugated with Molecule I (+20K)
notes: also called VH-111 W111 (+20K)
B36: anti-CD3 antibody mutant VL-K55C conjugated with Molecule I (+20K) (antibody, V domains shown)
VH: B1 VH with C61Y
VL: B1 VL with K55C
modifications: Cys 55 conjugated with Molecule I (+20K)
notes: also called VL-55 K55 (+20K)

Where a chain is given by its changes, count along the chain named. Numbers in names are those of the source.

For the first assay, the target named is T1, CD3 (antigen of the anti-CD3 antibody, coated in the ELISA of Examples 1-3) (Homo sapiens (Human), UniProt P07766 23-126).
T1 construct: also called antibody antigen
T1 sequence (P07766 23-126 limits assumed, form in doubt): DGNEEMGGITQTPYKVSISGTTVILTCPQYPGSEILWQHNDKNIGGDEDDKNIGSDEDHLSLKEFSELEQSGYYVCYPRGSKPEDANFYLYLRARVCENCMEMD
Description: ELISA, coated antigen, anti-human IgG-HRP; reference wild-type antibody. The method, then:
(§1) In the present invention, the activity of each mutant with a point mutation compared to that of its initial antibody is detected by ELISA. Specifically, the 96-well plates were coated with antibody antigen overnight, then blocked with 1% BSA blocking agent (Thermo Fisher) at 37° C. for 2 hours, and washed with PBST for 3 times. The corresponding antibody or the corresponding mutant was added for binding at 37° C. for 1 hour, and then washed with PBST for 3 times. HRP enzyme-linked anti-human IgG was added for binding at 37° C. for 1 hour, and washed with PBST for 3 times. TMB substrate (Solarbio., Inc.) was used to detect absorbance at 450 nm. The effect on mutant binding strength was calculated through EC50 mutation/EC50 wild-type.
According to the above method, the binding activity of anti-CD3 antibody SP34 mutant with mutations at different position shown in Table 1 was detected.
Background: ELISA stands for enzyme-linked immunosorbent assay.
Consider B1, for which the “Binding strength of mutants (EC50 mutant/EC50 wild-type)” value (“Binding strength of mutants” for short) stood at 5.1 fold.
Still for that read-out and setting: under B2 stands 1 fold; under B3, 1.2 fold.
Consider B4, for which the “Binding strength of mutants” value stood at 1.8 fold.
The same measure, in the same setting: with B5 the figure was 2 fold; with B6, 0.9 fold.
As to B7, the “Binding strength of mutants” value came out at 1.5 fold.
Still for that read-out and setting: under B8 stands 2 fold; under B9, 1.1 fold.
Still for that read-out and setting: with B10 the figure was 1 fold; with B11, 1 fold; with B12, 1 fold.
Still for that read-out and setting: under B13 stands 1.2 fold; under B14, 1.2 fold.

The target of another assay is T1, CD3 (antigen of the anti-CD3 antibody, …). Description: binding activity after activation of the conjugate; method not described.
As for B15, the “Recovery of binding force after activation (%)” value came out at 100%.
Same read-out and setting: with B16 the figure was 100%; with B17, 100%.
The same measure, in the same setting: with B18 the figure was 100%.

The next assay shares this target. Description: binding activity after conjugation with different R1; method not described (presumably ELISA).
For B19, the “Blocking fold after conjugation” value amounted to 400 fold.
Consider B20, for which the “Blocking fold after conjugation” value is 10 fold.
On the same count and under the same terms, under B21 stands 20 fold; under B22, 500 fold.

A further assay has the same target. The experiment in a line: binding activity of the conjugated mutant compared with the wild-type antibody (ELISA as in Example 1). The method, then:
as §1
B23: the “Blocking fold after conjugation (+20K)” value stood at 400 fold.
Same read-out and setting: under B24 stands 30 fold; under B25, 4 fold; under B26, 8 fold.
The same measure, in the same setting: with B27 the figure was 3 fold.
The same measure, in the same setting: with B28 the figure was 4 fold.
In the case of B29, the “Blocking fold after conjugation (+20K)” value stood at 2 fold.
The same measure, in the same setting: under B30 stands 12 fold; under B31, 5 fold.
Turning to B32, the “Blocking fold after conjugation (+20K)” value stood at 13 fold.
Same read-out and setting: under B33 stands 6 fold.
Consider B34, for which the “Blocking fold after conjugation (+20K)” value amounted to 5 fold.
Still for that read-out and setting: under B35 stands 6 fold; under B36, 5 fold.
